What all share (assay): cell-based or functional assay
Experiment [1] deals with HIV-1 Env of KER2008.12.SG3 pseudovirus (clade A) (HIV-1).
For experiment [2], the target named is HIV-1 Env of CNE31.SG3 pseudovirus (clade C) (HIV-1).
Experiment [3] deals with HIV-1 Env of YU2.DG.SG3 pseudovirus (clade B) (HIV-1) (UniProt P35961).
For experiment [4], the target named is HIV-1 Env of 6101.10.SG3 pseudovirus (clade B) (HIV-1).
The target in experiment [5] is HIV-1 Env of TH966.8.SG3 pseudovirus (clade AE) (HIV-1).
Experiment [6] concerns the target HIV-1 Env of PVO.04.SG3 pseudovirus (clade B) (HIV-1).
Experiment [7] concerns the target HIV-1 Env of 6095.V1.C10.SG3 pseudovirus (clade ACD) (HIV-1).
Experiment [8] has as its target HIV-1 Env of ZM215.8.SG3 pseudovirus (clade C) (HIV-1).
The target of experiment [9] is HIV-1 Env of ZM106.9.SG3 pseudovirus (clade C) (HIV-1).
Experiment [10] concerns the target HIV-1 Env of KER2008.12.SG3 pseudovirus (clade A) (HIV-1). The source holds these as a separate data set.
Experiment [11] deals with HIV-1 Env of CNE31.SG3 pseudovirus (clade C) (HIV-1). The source holds these as a separate data set.
For experiment [12], the target named is HIV-1 Env of YU2.DG.SG3 pseudovirus (clade B) (HIV-1) (UniProt P35961). This is another data set of the same source.
In experiment [13] the target is HIV-1 Env of 6101.10.SG3 pseudovirus (clade B) (HIV-1). The source holds these as a separate data set.
Experiment [14] concerns the target HIV-1 Env of TH966.8.SG3 pseudovirus (clade AE) (HIV-1). This is another data set of the same source.
The target in experiment [15] is HIV-1 Env of PVO.04.SG3 pseudovirus (clade B) (HIV-1). The source holds these as a separate data set.
Experiment [16] deals with HIV-1 Env of 6095.V1.C10.SG3 pseudovirus (clade ACD) (HIV-1). The source holds these as a separate data set.
For experiment [17], the target named is HIV-1 Env of ZM215.8.SG3 pseudovirus (clade C) (HIV-1). The source holds these as a separate data set.
Experiment [18] addresses HIV-1 Env of ZM106.9.SG3 pseudovirus (clade C) (HIV-1). The source holds these as a separate data set.

IC50, pseudovirus neutralization and IC80, pseudovirus neutralization data for 13 substances are collected here from patent US20190077849A1.

Like-named read-outs stand apart in the source and are kept apart here.

Sequence of 10E8v4 S100cF (antibody) (VH): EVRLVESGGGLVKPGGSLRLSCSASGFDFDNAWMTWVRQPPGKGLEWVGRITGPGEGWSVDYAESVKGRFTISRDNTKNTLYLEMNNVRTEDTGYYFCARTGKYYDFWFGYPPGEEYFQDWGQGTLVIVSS
Sequence of 10E8v4 S100cF (antibody) (VL): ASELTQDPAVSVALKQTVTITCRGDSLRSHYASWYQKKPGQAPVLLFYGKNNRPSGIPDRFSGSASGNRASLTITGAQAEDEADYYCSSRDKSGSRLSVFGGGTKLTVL
Sequence of 10E8v4 S100cW (antibody) (VH): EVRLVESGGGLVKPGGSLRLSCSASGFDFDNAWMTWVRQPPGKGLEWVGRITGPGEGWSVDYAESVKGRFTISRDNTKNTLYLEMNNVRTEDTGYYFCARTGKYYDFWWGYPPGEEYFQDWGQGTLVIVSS
Sequence of 10E8v4 S100cW (antibody) (VL): as the sequence (VL) above
Sequence of 10E8v4 S100cL (antibody) (VH): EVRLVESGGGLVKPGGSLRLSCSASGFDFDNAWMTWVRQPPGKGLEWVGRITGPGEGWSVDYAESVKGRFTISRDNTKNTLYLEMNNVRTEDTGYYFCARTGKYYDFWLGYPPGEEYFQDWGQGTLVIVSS
Sequence of 10E8v4 S100cL (antibody) (VL): as the sequence (VL) above
Sequence of 10E8v4 S100cH (antibody) (VH): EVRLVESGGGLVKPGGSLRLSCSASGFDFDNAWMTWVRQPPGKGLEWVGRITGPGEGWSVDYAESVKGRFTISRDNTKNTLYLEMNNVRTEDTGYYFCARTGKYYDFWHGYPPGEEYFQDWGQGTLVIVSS
Sequence of 10E8v4 S100cH (antibody) (VL): as the sequence (VL) above

Turning to 10E8v4 S100cF (antibody), the IC50, pseudovirus neutralization in experiment [1] was greater than 50 µg/mL; in experiment [2], 0.097 µg/mL; in [3], 0.073 µg/mL; in experiment [4], 0.001 µg/mL; in [5], 0.002 µg/mL; in experiment [6], 0.147 µg/mL. Besides, the IC50, pseudovirus neutralization in [7] was 0.001 µg/mL; in experiment [8], 0.003 µg/mL; in [9] it was greater than 50 µg/mL. Besides, the IC80, pseudovirus neutralization in [1] is greater than 50 µg/mL; in experiment [2] it was 0.306 µg/mL; in experiment [3], 0.482 µg/mL; in [4], 0.008 µg/mL; in experiment [5], 0.017 µg/mL; in [6] it was 0.696 µg/mL. Moreover, the IC80, pseudovirus neutralization in [7] is 0.001 µg/mL; in [8], 0.02 µg/mL; in [9], greater than 50 µg/mL.
10E8v4 S100cH (antibody): the IC50, pseudovirus neutralization in [1] is greater than 50 µg/mL; in experiment [2] it was 2.24 µg/mL; in experiment [3] it was 2.59 µg/mL; in [4], 0.103 µg/mL; in [5], 0.091 µg/mL; in [6] it was 3.4 µg/mL. Moreover, the results for the IC50, pseudovirus neutralization in experiment [7], in [8] and in experiment [9] were 0.011 µg/mL, 0.141 µg/mL and greater than 50 µg/mL, respectively. Further, the IC80, pseudovirus neutralization in experiment [1] was greater than 50 µg/mL; in experiment [2], 6.79 µg/mL; in experiment [3] it was 10.9 µg/mL; in [4] it was 0.643 µg/mL; in experiment [5], 0.488 µg/mL; in experiment [6], 14 µg/mL. Moreover, the IC80, pseudovirus neutralization in [7] is 0.046 µg/mL; in experiment [8] it was 0.966 µg/mL; in experiment [9] it was greater than 50 µg/mL.
10E8v4 S100cL (antibody): the IC50, pseudovirus neutralization in experiment [1] is greater than 50 µg/mL; in experiment [2], 0.354 µg/mL; in experiment [3], 0.333 µg/mL; in [4], 0.007 µg/mL; in experiment [5], 0.011 µg/mL; in experiment [6], 0.507 µg/mL. The IC50, pseudovirus neutralization was 0.001 µg/mL in experiment [7], 0.015 µg/mL in experiment [8] and greater than 50 µg/mL in experiment [9]. The IC80, pseudovirus neutralization was greater than 50 µg/mL in experiment [1]; 1.01 µg/mL in [2]; 1.75 µg/mL in [3]; 0.049 µg/mL in experiment [4]; 0.079 µg/mL in experiment [5]; 2.21 µg/mL in experiment [6]. Moreover, the values for the IC80, pseudovirus neutralization in experiment [7], in experiment [8] and in experiment [9] were 0.002 µg/mL, 0.095 µg/mL and greater than 50 µg/mL, respectively.
As to 10E8v4 S100cW (antibody), the IC50, pseudovirus neutralization turned out to be 0.041 µg/mL in experiment [2]; 0.042 µg/mL in [3]; 0.001 µg/mL in experiment [4]; 0.001 µg/mL in experiment [5]; 0.088 µg/mL in [6]; 0.001 µg/mL in experiment [7]. Besides, the IC50, pseudovirus neutralization in experiment [8] was 0.001 µg/mL; in [10], greater than 50 µg/mL; in [11], 0.107 µg/mL; in experiment [12] it was 0.031 µg/mL; in experiment [13], 0.002 µg/mL; in [14] it was 0.003 µg/mL. The IC50, pseudovirus neutralization was 0.085 µg/mL in experiment [15], 0.004 µg/mL in experiment [17] and greater than 50 µg/mL in [18]. Moreover, the IC80, pseudovirus neutralization in experiment [2] turned out to be 0.149 µg/mL; in experiment [3], 0.331 µg/mL; in experiment [4] it was 0.006 µg/mL; in experiment [5], 0.007 µg/mL; in [6], 0.388 µg/mL; in experiment [8], 0.012 µg/mL. The IC80, pseudovirus neutralization in experiment [10] is greater than 50 µg/mL; in experiment [11] it was 0.295 µg/mL; in [12], 0.26 µg/mL; in experiment [13], 0.01 µg/mL; in [14], 0.013 µg/mL; in experiment [15], 0.459 µg/mL. The IC80, pseudovirus neutralization in experiment [16] is 0.001 µg/mL; in [17], 0.025 µg/mL; in [18], greater than 50 µg/mL.
For the substance 10E8v4 VL Y32L (antibody), the IC50, pseudovirus neutralization in [10] is greater than 50 µg/mL; in experiment [11] it was greater than 50 µg/mL; in experiment [12], greater than 50 µg/mL; in experiment [13], 38.6 µg/mL; in [14], 4.26 µg/mL; in experiment [15], greater than 50 µg/mL. For the same substance, the IC50, pseudovirus neutralization was 0.593 µg/mL in experiment [16], 8.75 µg/mL in experiment [17] and greater than 50 µg/mL in experiment [18].
As to 10E8v4 VL Y32M (antibody), the IC50, pseudovirus neutralization in experiment [10] was greater than 50 µg/mL; in experiment [11] it was greater than 50 µg/mL; in experiment [12], greater than 50 µg/mL; in experiment [13] it was greater than 50 µg/mL; in experiment [14], 29.8 µg/mL; in experiment [15], greater than 50 µg/mL. The IC50, pseudovirus neutralization was 1.03 µg/mL in experiment [16], greater than 50 µg/mL in experiment [17] and greater than 50 µg/mL in [18].
For the substance 10E8v4 VL Y32N (antibody), the IC50, pseudovirus neutralization in experiment [10], in experiment [11], in [12], in experiment [13], in experiment [14] and in [15] was greater than 50 µg/mL throughout. In addition, the IC50, pseudovirus neutralization in experiment [16] was 2.92 µg/mL; in [17] it was greater than 50 µg/mL; in experiment [18], greater than 50 µg/mL.
With 10E8v4 VL Y32P (antibody), the IC50, pseudovirus neutralization in experiment [10], in experiment [11], in [12], in [13], in [14] and in experiment [15] was greater than 50 µg/mL throughout. Also, the IC50, pseudovirus neutralization in experiment [16] was 3.2 µg/mL; in experiment [17] it was greater than 50 µg/mL; in [18], greater than 50 µg/mL.
Turning to 10E8v4 VL Y32Q (antibody), the IC50, pseudovirus neutralization was greater than 50 µg/mL in experiment [10]; greater than 50 µg/mL in [11]; greater than 50 µg/mL in experiment [12]; greater than 50 µg/mL in [13]; 11.5 µg/mL in experiment [14]; greater than 50 µg/mL in [15]. Besides, the IC50, pseudovirus neutralization is 0.281 µg/mL in experiment [16], greater than 50 µg/mL in experiment [17] and greater than 50 µg/mL in experiment [18].
Consider 10E8v4 VL Y32R (antibody), for which the IC50, pseudovirus neutralization in [10] is greater than 50 µg/mL; in experiment [11], greater than 50 µg/mL; in experiment [12] it was greater than 50 µg/mL; in [13] it was greater than 50 µg/mL; in [14], 4.08 µg/mL; in experiment [15] it was greater than 50 µg/mL. The IC50, pseudovirus neutralization is 0.152 µg/mL in experiment [16], 7.52 µg/mL in [17] and greater than 50 µg/mL in experiment [18].
Regarding 10E8v4 VL Y32T (antibody), the IC50, pseudovirus neutralization is greater than 50 µg/mL in experiment [10]; greater than 50 µg/mL in experiment [11]; 43.5 µg/mL in experiment [12]; greater than 50 µg/mL in experiment [13]; 3.76 µg/mL in experiment [14]; greater than 50 µg/mL in experiment [15]. Also, the IC50, pseudovirus neutralization in experiment [16] was 0.145 µg/mL; in [17], 9.25 µg/mL; in experiment [18], greater than 50 µg/mL.
Consider 10E8v4 VL Y32V (antibody), for which the IC50, pseudovirus neutralization in experiment [10] was greater than 50 µg/mL; in [11], greater than 50 µg/mL; in experiment [12], greater than 50 µg/mL; in experiment [13] it was greater than 50 µg/mL; in experiment [14] it was 4.96 µg/mL; in experiment [15] it was greater than 50 µg/mL. Also, the IC50, pseudovirus neutralization in experiment [16] is 0.558 µg/mL; in experiment [17], 28.2 µg/mL; in experiment [18] it was greater than 50 µg/mL.
Turning to 10E8v4 VL Y32W (antibody), the IC50, pseudovirus neutralization in experiment [10] was greater than 50 µg/mL; in experiment [11] it was 0.719 µg/mL; in experiment [12], 1.07 µg/mL; in experiment [13] it was 0.055 µg/mL; in [14], 0.029 µg/mL; in [15] it was 1.4 µg/mL. The IC50, pseudovirus neutralization is 0.005 µg/mL in [16], 0.089 µg/mL in [17] and greater than 50 µg/mL in [18].
